In US20080199851A1:
Several values for one entry are separate records, joined by “and”; a condition that tells them apart may be missing. Equal values may be shown once.

Assays:
[1] = biological target: Recombinant H5 hemagglutinin; assay: lateral-flow sandwich, 3C8 line + 3G4-gold, 50 uL buffer, 15 min
[2] = biological target: Recombinant H5 hemagglutinin; assay: lateral-flow sandwich, 3C8 line + 3G4-gold, 50 uL buffer, 20 min
[3] = biological target: Recombinant H5 hemagglutinin; assay: lateral-flow sandwich, 3C8 line + 3G4-gold, 50 uL buffer, 25 min
[4] = biological target: Recombinant H5 hemagglutinin; assay: lateral-flow sandwich, 3C8 line + 3G4-gold, 50 uL buffer, 30 min
[5] = biological target: Recombinant H5 hemagglutinin; assay: lateral-flow sandwich, 3C8 line + 3G4-gold, 60 uL buffer, 15 min
[6] = biological target: Recombinant H5 hemagglutinin; assay: lateral-flow sandwich, 3C8 line + 3G4-gold, 60 uL buffer, 20 min
[7] = biological target: Recombinant H5 hemagglutinin; assay: lateral-flow sandwich, 3C8 line + 3G4-gold, 60 uL buffer, 25 min
[8] = biological target: Recombinant H5 hemagglutinin; assay: lateral-flow sandwich, 3C8 line + 3G4-gold, 60 uL buffer, 30 min
[9] = biological target: Recombinant H5 hemagglutinin; assay: lateral-flow sandwich, 3C8 line + 3G4-gold, 70 uL buffer, 15 min
[10] = biological target: Recombinant H5 hemagglutinin; assay: lateral-flow sandwich, 3C8 line + 3G4-gold, 70 uL buffer, 20 min
[11] = biological target: Recombinant H5 hemagglutinin; assay: lateral-flow sandwich, 3C8 line + 3G4-gold, 70 uL buffer, 25 min
[12] = biological target: Recombinant H5 hemagglutinin; assay: lateral-flow sandwich, 3C8 line + 3G4-gold, 70 uL buffer, 30 min
[13] = biological target: Recombinant H5 hemagglutinin; assay: lateral-flow sandwich, 3C8 line + 3G4-gold, 80 uL buffer, 15 min
[14] = biological target: Recombinant H5 hemagglutinin; assay: lateral-flow sandwich, 3C8 line + 3G4-gold, 80 uL buffer, 20 min
[15] = biological target: Recombinant H5 hemagglutinin; assay: lateral-flow sandwich, 3C8 line + 3G4-gold, 80 uL buffer, 25 min
[16] = biological target: Recombinant H5 hemagglutinin; assay: lateral-flow sandwich, 3C8 line + 3G4-gold, 80 uL buffer, 30 min
[17] = biological target: Recombinant H5 hemagglutinin; assay: lateral-flow sandwich, 3C8 line + 3G4-gold, 50 uL buffer, 15 min; remark: listed apart in the source
[18] = biological target: Recombinant H5 hemagglutinin; assay: lateral-flow sandwich, 3C8 line + 3G4-gold, 60 uL buffer, 15 min; remark: listed apart in the source
[19] = biological target: Recombinant H5 hemagglutinin; assay: lateral-flow sandwich, 3C8 line + 3G4-gold, 70 uL buffer, 15 min; remark: listed apart in the source
[20] = biological target: Recombinant H5 hemagglutinin; assay: lateral-flow sandwich, 3C8 line + 3G4-gold, 100 uL buffer, 15 min
[21] = biological target: Recombinant H5 hemagglutinin; assay: lateral-flow sandwich, 3C8 line + 3G4-gold, 100 uL buffer, 20 min
[22] = biological target: Recombinant H5 hemagglutinin; assay: lateral-flow sandwich, 3C8 line + 3G4-gold, 100 uL buffer, 25 min
[23] = biological target: Recombinant H5 hemagglutinin; assay: lateral-flow sandwich, 3C8 line + 3G4-gold, 100 uL buffer, 30 min

B1: monoclonal antibody 3C8 (antibody, V domains shown)
VH: QIQLVQSGPELKKPGETVKISCKASGYSFTNYGMNWVKQAPGKGLKWMGWINTYTGEPAYADDFKGRFAFSLETSASTAYLQINNLKNEDTATYFCARWNRDAMDYWGQGTSVTVSS
VL: DIVLTQSPASLAVSLGQRATISCRASESVDSSDNSLMHWYQQKPGQPPKLLIYRASNLESGIPARFSGSGSRTDFTLTINPVEADDVATYYCQQSIGDPPYTFGGGTKLEIKR
[1]
  Peak Intensity: 55.6 and 51.1
[2]
  Peak Intensity: 62.3 and 57.3
[3]
  Peak Intensity: 63.1 and 55.4
[4]
  Peak Intensity: 62.5 and 62.6
[5]
  Peak Intensity: 53.5 and 51.6
[6]
  Peak Intensity: 65.7 and 63.8
[7]
  Peak Intensity: 68.5 and 66.2
[8]
  Peak Intensity: 68.9 and 66.5
[9]
  Peak Intensity: 45.6 and 42.1
[10]
  Peak Intensity: 57.9 and 57
[11]
  Peak Intensity: 60.4 and 61.7
[12]
  Peak Intensity: 60.7 and 63.9
[13]
  Peak Intensity: 39.6 and 42.9
[14]
  Peak Intensity: 53.7 and 57.9
[15]
  Peak Intensity: 59.8 and 64.7
[16]
  Peak Intensity: 61.5 and 65.4
[17]
  Peak Intensity: 56.9 and 57.8
[18]
  Peak Intensity: 50.2 and 51.2
[19]
  Peak Intensity: 46.8 and 47.9
[20]
  Peak Intensity: 35.2 and 30.8
[21]
  Peak Intensity: 49.2 and 44.9
[22]
  Peak Intensity: 54.6 and 49.3
[23]
  Peak Intensity: 55.6 and 49.8
